Laboratory results as given in patent publication US20210196796A1 (SYNTHEKINE, published 2021).
Positions count from the first letter of the chain named. Numbers in names are those of the source.

T1: orthogonal hCD122 receptor (hoRb), hCD122 with H133D and Y134F (human, UniProt P14784 27-550)
T1 sequence: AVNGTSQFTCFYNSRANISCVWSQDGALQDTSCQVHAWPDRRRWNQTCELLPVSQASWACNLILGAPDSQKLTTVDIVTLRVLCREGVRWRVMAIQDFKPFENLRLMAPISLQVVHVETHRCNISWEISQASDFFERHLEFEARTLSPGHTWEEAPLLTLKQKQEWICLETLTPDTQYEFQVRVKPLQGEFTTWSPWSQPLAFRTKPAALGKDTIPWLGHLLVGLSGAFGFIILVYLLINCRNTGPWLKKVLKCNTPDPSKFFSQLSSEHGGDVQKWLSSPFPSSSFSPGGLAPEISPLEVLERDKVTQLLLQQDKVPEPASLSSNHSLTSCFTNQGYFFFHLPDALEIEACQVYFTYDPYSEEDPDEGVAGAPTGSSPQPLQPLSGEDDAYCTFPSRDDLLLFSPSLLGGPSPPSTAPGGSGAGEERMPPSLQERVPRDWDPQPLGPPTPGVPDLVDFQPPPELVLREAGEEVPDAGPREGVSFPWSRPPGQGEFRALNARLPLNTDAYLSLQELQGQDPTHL

B1: V91R, SQVLKA (ligand)
chain: APTSSSTKKTQLQLSQLLVLLKAILNGINNYKNPKLTRMLTFKFYMPKKATELKHLQCLEEELKPLEEVLNLAQSKNFHLRPRDLISNINRIVLELKGSETTFMCEYADETATIVEFLNRWITFCQSIISTLT
B2: D109C, SQVLKA (ligand)
chain: B1 chain with R91V, D109C
B3: Q126M, SQVLKA (ligand)
chain: B1 chain with R91V, Q126M
B4: C125S, SQVLKA (ligand)
chain: B1 chain with R91V, C125S
B5: L14M, SQVLKA (ligand)
chain: B1 chain with L14M, R91V
B6: Q126D, SQVLKA (ligand)
chain: B1 chain with R91V, Q126D
B7: I92F, SQVLKA (ligand)
chain: B1 chain with R91V, I92F
B8: V91K, SQVLKA (ligand)
chain: B1 chain with R91K
B9: Q126K, SQVLKA (ligand)
chain: B1 chain with R91V, Q126K
B10: K97Q, SQVLKA (ligand)
chain: B1 chain with R91V, K97Q
B11: C125A, SQVLKA (ligand)
chain: B1 chain with R91V, C125A
B12: Q126H, SQVLKA (ligand)
chain: B1 chain with R91V, Q126H
B13: M104A, SQVLKA (ligand)
chain: B1 chain with R91V, M104A
B14: Q126C, SQVLKA (ligand)
chain: B1 chain with R91V, Q126C
B15: T113N, SQVLKA (ligand)
chain: B1 chain with R91V, T113N

molecular target: T1, orthogonal hCD122 receptor (hoRb), …; experiment: cell-based or functional assay
Wherever Relative Proliferation Fold Change 3F8 1:10 is given: reference of the scale not given here.
Wherever Relative Proliferation Fold Change 3F8 1:2 is given: reference of the scale not given here.
Wherever Relative Proliferation Fold Change 3F8 1:50 is given: reference of the scale not given here.
Wherever Relative Proliferation Fold Change NKL 1:10 is given: reference of the scale not given here.
Wherever Relative Proliferation Fold Change NKL 1:2 is given: reference of the scale not given here.
Wherever Relative Proliferation Fold Change NKL 1:50 is given: reference of the scale not given here.

NKL Ortho Proliferation Signal 1:2	NKL Ortho Proliferation Signal 1:10	NKL Ortho Proliferation Signal 1:50	Relative Proliferation Fold Change NKL 1:2 [fold]	Relative Proliferation Fold Change NKL 1:10 [fold]	Relative Proliferation Fold Change NKL 1:50 [fold]	Binder
8530	5580	4420	0.86	0.53	0.44	B1
47800	44200	20400	4.2	3.22	1.52	B2
19800	18700	9760	2	1.29	0.74	B3
48200	59500	27800	4.29	4.53	2.26	B4
57200	54500	26700	3.76	3.45	1.98	B5
4640	7560	6380	0.39	0.49	0.46	B6
32200	27000	12800	2.32	1.84	0.92	B7
5180	5210	4940	0.74	0.63	0.53	B8
6510	7930	6980	0.54	0.56	0.53	B9
53000	55400	25200	3.29	3.64	1.9	B10
42000	50400	22800	3.95	3.6	1.95	B11
43600	29000	15800	3.64	1.92	1.09	B12
47600	54800	29500	3.88	3.48	2.09	B13
6560	8210	7200	0.44	0.53	0.49	B14
47400	48800	21400	3.71	3.45	1.63	B15

molecular target: T1, orthogonal hCD122 receptor (hoRb), …; experiment: cell-based or functional assay; remark: another data set of the same source

3F8 Ortho Proliferation Signal 1:2 [cts/min]	3F8 Ortho Proliferation Signal 1:10 [cts/min]	3F8 Ortho Proliferation Signal 1:50 [cts/min]	Relative Proliferation Fold Change 3F8 1:2 [fold]	Relative Proliferation Fold Change 3F8 1:10 [fold]	Relative Proliferation Fold Change 3F8 1:50 [fold]	Binder
12500	5140	2850	35.6	10	2.93	B1
29100	34000	18600	84	51.4	23.2	B2
33100	33200	17100	154	55.6	31.8	B3
36200	45000	26100	140	66.6	26.9	B4
39800	41500	18500	40.9	34.1	12.1	B5
294	368	544	0.63	0.4	0.61	B6
29700	36300	20900	80.2	57.6	18.4	B7
3720	992	804	13.4	1.44	1.25	B8
2720	2490	964	9.18	7.29	1.51	B9
35600	40100	19700	91.6	32.5	33.1	B10
43700	44600	24800	0.72	4.37	5.3	B11
36500	38600	18700	181	54.1	14.5	B12
29300	42400	27100	24.4	37.6	39.7	B13
452	574	748	2.28	0.68	1.4	B14
31600	33100	13600	39.6	38.8	12.7	B15
